Results on one molecule are retold here after patent US8143228B2, “Agents capable of downregulating an MSF-A dependent HIF-1α and use thereof in cancer treatment” (Medical Research Fund of Tel Aviv Sourasky Medical Center, priority 2004, dated 2012).

For test [1], the system named is HIF-1α transcriptional activity. As to the kind of experiment: HRE-dependent luciferase reporter gene assay in HEK 293 cells. It counts as cell-based. The following applies: transient transfection, hypoxia, compared with empty vector. On the procedure:
FIG. 7 is a graph depicting luciferase activity (a reporter of HIF-1α transcriptional activation) as a function of the presence or absence of the N-terminus of the MSF-A protein. HEK 293 cells were co-transfected with 0.1 μg HRE-dependent luciferase reporter [pBI-GL V6L (Post, D. E., and Van Meir, E. G. 2001. Generation of bidirectional hypoxia/HIF-responsive expression vectors to target gene expression to hypoxic cells. Gene Ther 8, 1801-1807. Mabjeesh, N. J., et al., 2002, Geldanamycin induces degradation of hypoxia-inducible factor 1 alpha protein via the proteasome pathway in prostate cancer cells. Cancer Res 62, 2478-2482) and the wild type (WT) MSF-A (p3xFlag-MSF-A), ΔN-MSF-A (ΔN) (p3xFlag-ΔN-MSF-A) or empty vector (EV) (p3xFlag-cmv-25) constructs as follows: Experiment (Exp.) No. 1=1 μg EV; Exp. No. 2=0.5 μg EV and 0.5 μg WT; Exp. No. 3-1 μg WT; Exp. No. 4=0.5 μg EV and 0.5 μg ΔN; Exp. No. 5=1 μg ΔN. After 24 hours of transfection, cells were subjected to normoxia or hypoxia for overnight and then analyzed for luciferase luminescence assay. Luciferase activity is presented as relative units per μg protein in each experiment. Columns represent means; bars represent SD; n=3; *, p<0.05 compared to hypoxia of EV. Note the significant decrease of luciferase activity in cells grown under hypoxia and transfected with the N-terminus truncated form (ΔN) of MSF-A as compared with cells transfected with the wild-type form of MSF-A. Also note that under normoxia, when the luciferase activity is hardly detected, no significant difference is obtained.
FIG. 8 is a graph depicting luciferase activity (a reporter of HIF-1α transcriptional activation) as a function of the presence or absence of the GTP binding site of MSF-A (ΔG). HEK 293 cells were cotransfected with HRE-dependent luciferase reporter and the expression vector encoding wild-type MSF-A (WT) (p3xFlag-MSF-A), the deleted GTP binding site form of MSF-A (ΔG) (p3xFlag-ΔG-MSF-A) or empty vector (EV) (p3xFlag-cmv-25) and then were exposed to hypoxia conditions as described in the description of FIG. 4, hereinabove. Luciferase activity is presented as relative units per μg protein in each experiment. Columns represent means; bars represent SD; n=3. Note the non-significant effect of the ΔG-MSF-A on HIF-1α activity.
Reporter gene assay and luminescence measurements—HRE-dependent luciferase activity was performed using the pBI-GL construct (pBI-GL V6L) containing six tandem copies of the VEGF hypoxia response element as previously described (Mabjeesh et al., 2002; Post and Van Meir, 2001). […] Luciferase enzymatic activity was measured using the commercial kit TROPIX (Bedford, Mass.) in the Galaxy luminometer (BMG Labtechnologies LUMIstar) following the manufacturer's instructions. […]

The test system of test [2] is PC-3 xenograft tumors. As to the kind of experiment: Prostate cancer subcutaneous xenograft model. It counts as in vivo, CD1/nude mice. The following applies: PC-3-MSF-A vs PC-3-Neo tumors. Here is the method:
FIG. 28 is a graph depicting the effect of MSF-A over-expression on tumor volume. A prostate cancer xenograft model was established using PC-3-Neo and PC-3-MSF-A cells (3×10^6) which were implanted subcutaneously into the right hind of nude mice. PBS was used as a negative control. Animals were monitored for tumor volume measurements. Tumor volume measurements were calculated using the formula width^2×length×0.52. Mean±SEM (n=5) of representative experiments is shown.
FIG. 29 is a graph depicting the effect of MSF-A over-expression on tumor weight. A prostate cancer xenograft model was established as described in FIG. 28. Mice were sacrificed after 6 weeks and tumors were processed for tumor weight measurements. Tumors were weighed immediately after dissection. Columns, means; bars, SEM; n=5; *, p<0.05.
FIGS. 30a-h are photomicrographs (FIGS. 30a-f) and graphs (FIGS. 30g-h) depicting MSF-A over-expression in tumors and angiogenesis in a prostate cancer xenograft model. […] FIG. 30g—Ki67 staining (%) was quantified by dividing the number of positive nuclei by the number of total nuclei in 40× magnification field multiplied by 100, of 5 paraffin-embedded tumor sections from each animal per group. […] FIG. 30h—Microvessel density (MVD) was determined by counting the capillaries positive for CD34 staining in 4× magnification field per total section area excluding necrotic areas in 5 paraffin-embedded tumor sections from each animal per group. […]
Immunohistochemistry with anti-CD34 and anti-Ki67—For immunohistochemical staining paraffin-embedded tissue was sectioned at 3 μm and mounted on Superfrost/plus slides (Menzel-Glaser, Braunschweig, Germany). […] For quantitative analysis of Ki67 and CD34 staining, positive staining cells and microvessels were counted and their density expressed as the number of positive cells per total number of cells or capillaries per total section area excluding necrotic areas, respectively. […]

B1: MSF-A: myeloid/lymphoid leukemia septin-like fusion protein A (SEQ ID NO:3), over-expressed from the p3xFlag-MSF-A vector (protein, listed as Homo sapiens)
chain: MKKSYSGGTRTSSGRLRRLGDSSGPALKRSFEVEEVETPNSTPPRRVQTPLLRATVASSTQKFQDLGVKNSEPSARHVDSLSQRSPKASLRRVELSGPKAAEPVSRRTELSIDISSKQVENAGAIGPSRFGLKRAEVLGHKTPEPAPRRTEITIVKPQESAHRRMEPPASKVPEVPTAPATDAAPKRVEIQMPKPAEAPTAPSPAQTLENSEPAPVSQLQSRLEPKPQPPVAEATPRSQEATEAAPSCVGDMADTPRDAGLKQAPASRNEKAPVDFGYVGIDSILEQMRRKAMKQGFEFNIMVVGQSGLGKSTLINTLFKSKISRKSVQPTSEERIPKTIEIKSITHDIEEKGVRMKLTVIDTPGFGDHINNENCWQPIMKFINDQYEKYLQEEVNINRKKRIPDTRVHCCLYFIPATGHSLRPLDIEFMKRLSKVVNIVPVIAKADTLTLEERVHFKQRITADLLSNGIDVYPQKEFDEDSEDRLVNEKFREMIPFAVVGSDHEYQVNGKRILGRKTKWGTIEVENTTHCEFAYLRDLLIRTHMQNIKDITSSIHFEAYRVKRLNEGSSAMANGVEEKEPEAPEM
modifications: 3xFlag tag
For the molecule B1, in test [1], the “HIF-1α transcriptional activity (luciferase reporter)” value is “induced HIF-1α activity”. Also, the “intratumoral cell proliferation (Ki67) and vascular density (CD34)” value in test [2] is reported as “significantly increased”. Besides, the mean tumor weight entry in test [2] (after 6 weeks) is recorded as “significantly heavier”. Also, in test [2] (s.c., nude mice, not statistically significant), the “increase of mean tumor volume” value is recorded as “about 2 fold”.
